Assays:
[1] = target: bovine serum albumin (BSA) (UniProt P02769 P02769:25-607); experiment: ELONA; BSA control beads, not different from No DNA
Description: Protein-modified magnetic beads were prepared by functionalising 1 mg of epoxy beads with either 10 μg of hCG or negative control proteins BSA or HSA (as in Example 2). Once functionalised, aliquots of the beads corresponding to 72 μg beads were added to individual wells of a 96-well plate which were pre-blocked with 3% w/v milk powder (in HMCKN-T buffer composed of 20 mM HEPES, 2 mM MgCl₂, 2 mM CaCl₂, 2 mM KCl, 150 mM NaCl, pH 7.4, supplemented with 0.002% v/v TWEEN 20.) Bead samples were prepared in triplicate.
A variation of the qPCR assay (FIG. 9) was employed using biotinylated aptamer sequences, creating a colourimetric ELONA (FIG. 10). During the colourimetric ELONA study, 5′ biotinylated full-length aptamer sequences were exposed to protein-modified beads—either hCG target or Bovine Serum Albumin (the bovine equivalent of HSA). After rinsing unbound aptamers from the beads, the colorimetric signal, proportional to the amount of biotinylated aptamer present, was generated by the addition of HRP-conjugated streptavidin and the subsequent HRP-catalysed oxidation of TMB.

[2] = target: human chorionic gonadotropin (hCG), alpha/beta heterodimer (Homo sapiens, UniProt P01215;P0DN86 P01215:25-116,P0DN86:21-165); experiment: EMSA; very slight band decrease; ELONA signal similar to No DNA; details: tags: Abcam ab126652, isolated from human urine, >=50% pure; label: 5' biotin
Sequence of human chorionic gonadotropin (hCG), alpha/beta heterodimer (P01215 25-116, chain 1 of 2, other chains not shown): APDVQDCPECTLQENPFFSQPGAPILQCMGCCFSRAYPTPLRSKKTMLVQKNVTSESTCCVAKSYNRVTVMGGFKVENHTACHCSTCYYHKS

Sequence of bovine serum albumin (BSA) (P02769 25-607, one chain of several): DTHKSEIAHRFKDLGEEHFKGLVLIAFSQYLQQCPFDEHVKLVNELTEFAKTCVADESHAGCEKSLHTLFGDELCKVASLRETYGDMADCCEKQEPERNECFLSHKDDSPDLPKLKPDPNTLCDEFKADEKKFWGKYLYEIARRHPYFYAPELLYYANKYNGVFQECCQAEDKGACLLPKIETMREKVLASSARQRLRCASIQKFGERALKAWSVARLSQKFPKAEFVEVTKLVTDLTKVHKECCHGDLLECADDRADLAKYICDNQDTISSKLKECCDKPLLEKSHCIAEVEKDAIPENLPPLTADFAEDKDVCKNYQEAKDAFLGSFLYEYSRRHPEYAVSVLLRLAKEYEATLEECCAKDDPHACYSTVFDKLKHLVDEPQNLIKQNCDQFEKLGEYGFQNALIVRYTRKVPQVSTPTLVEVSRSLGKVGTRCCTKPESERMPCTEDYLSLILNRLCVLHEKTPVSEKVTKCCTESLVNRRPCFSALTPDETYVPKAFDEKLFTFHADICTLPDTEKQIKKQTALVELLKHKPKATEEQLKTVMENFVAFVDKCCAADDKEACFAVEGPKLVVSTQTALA

B1: R5_4 truncated (ssDNA)
DNA: CAAGGATCGGCTCAACTTAATATTGGAGGGATAGTGTTGG
Q: Does B1 bind ([1]; label: 5' biotin)?
A: no binding

B2: R4_64 truncated (ssDNA)
DNA: ACCTGCTGACATTGGGTGGGTCCTGAACCATTTTTAATCA
Q: Does B2 bind ([1]; label: 5' biotin (3' biotin variant also used))?
A: no binding

B3: R6_5 truncated (ssDNA)
DNA: CAACTATTTCAGTATTCTAGAAAGGTCAAACCTTAGGAGC
Q: Does B3 bind ([1]; label: 5' biotin)?
A: no binding

B4: R4_1 truncated (amplification artefact control) (ssDNA)
DNA: TGGACGAGGTATCTCGTATCATTGGCACCTAAAACTCCGT
Q: Does B4 bind ([1]; label: 5' biotin)?
A: no binding

Q: Does B4 bind [2]?
A: no binding

— patent publication US20250347705, “Epitope-Specific hCG Binding Aptamers and Applications Thereof” (Rhodes University, published 2025)
